In US8022177B2, “Peptides and calcium regulation in mammalian cells” (The Board of Trustees of the University of Illinois, priority 2005, dated 2011):
Substitutions are numbered along the chain they refer to. Names may count otherwise. Where two headings read alike, the source gives them in different places.

B1: γ6 A46I: γ6 mutant, alanine 46 replaced by isoleucine (protein, UniProt Q9BXT2 1-260, looked up, variant A46I)
Voltage-dependent calcium …: MMWSNFFLQEENRRRGAAGRRRAHGQGRSGLTPEREGKVKLALLLIAVGATLAVLSVGTEFWVELNTYKANGSAVCEAAHLGLWKACTKRLWQADVPVDRDTCGPAELPGEANCTYFKFFTTGENARIFQRTTKKEVNLAAAVIAVLGLAVMALGCLCIIMVLSKGAEFLLRVGAVCFGLSGLLLLVSLEVFRHSVRALLQRVSPEPPPAPRLTYEYSWSLGCGVGAGLILLLGAGCFLLLTLPSWPWGSLCPKRGHRAT
B2: γ6 G49A: γ6 with glycine 49 mutated to alanine (protein, UniProt Q9BXT2 1-260, looked up, variant G49A)
Voltage-dependent calcium …: B1 Voltage-dependent calcium … with I46A, G49A
B3: γ1: wild-type calcium channel γ1 subunit (protein, UniProt Q06432 1-222, looked up)
Voltage-dependent calcium …: MSQTKMLKVRVTLFCILAGIVLAMTAVVTDHWAVLSPHMEHHNTTCEAAHFGLWRICTKRIPMDDSKTCGPITLPGEKNCSYFRHFNPGESSEIFEFTTQKEYSISAAAIAIFSLGFIILGSLCVLLSLGKKRDYLLRPASMFYAFAGLCILVSVEVMRQSVKRMIDSEDTVWIEYYYSWSFACACAAFILLFLGGLALLLFSLPRMPRNPWESCMDAEPEH

Experiments:
Cav3.1 [1] = target: T1, Cav3.1 (Homo sapiens, UniProt O43497); assay: Whole-cell patch clamp of Cav3.1 current in Cav3.1-HEK cells transfected with γ6, γ4, their first transmembrane domains or point mutants (Example 3); type: cell-based; conditions: for Normalized Current Density: relative to vector control (100.0%), Table 3.3
T1 construct: expressed in transfected cells; host or cells: HEK-293, stably transfected
T1 sequence (O43497 whole entry, the tested form may be a part): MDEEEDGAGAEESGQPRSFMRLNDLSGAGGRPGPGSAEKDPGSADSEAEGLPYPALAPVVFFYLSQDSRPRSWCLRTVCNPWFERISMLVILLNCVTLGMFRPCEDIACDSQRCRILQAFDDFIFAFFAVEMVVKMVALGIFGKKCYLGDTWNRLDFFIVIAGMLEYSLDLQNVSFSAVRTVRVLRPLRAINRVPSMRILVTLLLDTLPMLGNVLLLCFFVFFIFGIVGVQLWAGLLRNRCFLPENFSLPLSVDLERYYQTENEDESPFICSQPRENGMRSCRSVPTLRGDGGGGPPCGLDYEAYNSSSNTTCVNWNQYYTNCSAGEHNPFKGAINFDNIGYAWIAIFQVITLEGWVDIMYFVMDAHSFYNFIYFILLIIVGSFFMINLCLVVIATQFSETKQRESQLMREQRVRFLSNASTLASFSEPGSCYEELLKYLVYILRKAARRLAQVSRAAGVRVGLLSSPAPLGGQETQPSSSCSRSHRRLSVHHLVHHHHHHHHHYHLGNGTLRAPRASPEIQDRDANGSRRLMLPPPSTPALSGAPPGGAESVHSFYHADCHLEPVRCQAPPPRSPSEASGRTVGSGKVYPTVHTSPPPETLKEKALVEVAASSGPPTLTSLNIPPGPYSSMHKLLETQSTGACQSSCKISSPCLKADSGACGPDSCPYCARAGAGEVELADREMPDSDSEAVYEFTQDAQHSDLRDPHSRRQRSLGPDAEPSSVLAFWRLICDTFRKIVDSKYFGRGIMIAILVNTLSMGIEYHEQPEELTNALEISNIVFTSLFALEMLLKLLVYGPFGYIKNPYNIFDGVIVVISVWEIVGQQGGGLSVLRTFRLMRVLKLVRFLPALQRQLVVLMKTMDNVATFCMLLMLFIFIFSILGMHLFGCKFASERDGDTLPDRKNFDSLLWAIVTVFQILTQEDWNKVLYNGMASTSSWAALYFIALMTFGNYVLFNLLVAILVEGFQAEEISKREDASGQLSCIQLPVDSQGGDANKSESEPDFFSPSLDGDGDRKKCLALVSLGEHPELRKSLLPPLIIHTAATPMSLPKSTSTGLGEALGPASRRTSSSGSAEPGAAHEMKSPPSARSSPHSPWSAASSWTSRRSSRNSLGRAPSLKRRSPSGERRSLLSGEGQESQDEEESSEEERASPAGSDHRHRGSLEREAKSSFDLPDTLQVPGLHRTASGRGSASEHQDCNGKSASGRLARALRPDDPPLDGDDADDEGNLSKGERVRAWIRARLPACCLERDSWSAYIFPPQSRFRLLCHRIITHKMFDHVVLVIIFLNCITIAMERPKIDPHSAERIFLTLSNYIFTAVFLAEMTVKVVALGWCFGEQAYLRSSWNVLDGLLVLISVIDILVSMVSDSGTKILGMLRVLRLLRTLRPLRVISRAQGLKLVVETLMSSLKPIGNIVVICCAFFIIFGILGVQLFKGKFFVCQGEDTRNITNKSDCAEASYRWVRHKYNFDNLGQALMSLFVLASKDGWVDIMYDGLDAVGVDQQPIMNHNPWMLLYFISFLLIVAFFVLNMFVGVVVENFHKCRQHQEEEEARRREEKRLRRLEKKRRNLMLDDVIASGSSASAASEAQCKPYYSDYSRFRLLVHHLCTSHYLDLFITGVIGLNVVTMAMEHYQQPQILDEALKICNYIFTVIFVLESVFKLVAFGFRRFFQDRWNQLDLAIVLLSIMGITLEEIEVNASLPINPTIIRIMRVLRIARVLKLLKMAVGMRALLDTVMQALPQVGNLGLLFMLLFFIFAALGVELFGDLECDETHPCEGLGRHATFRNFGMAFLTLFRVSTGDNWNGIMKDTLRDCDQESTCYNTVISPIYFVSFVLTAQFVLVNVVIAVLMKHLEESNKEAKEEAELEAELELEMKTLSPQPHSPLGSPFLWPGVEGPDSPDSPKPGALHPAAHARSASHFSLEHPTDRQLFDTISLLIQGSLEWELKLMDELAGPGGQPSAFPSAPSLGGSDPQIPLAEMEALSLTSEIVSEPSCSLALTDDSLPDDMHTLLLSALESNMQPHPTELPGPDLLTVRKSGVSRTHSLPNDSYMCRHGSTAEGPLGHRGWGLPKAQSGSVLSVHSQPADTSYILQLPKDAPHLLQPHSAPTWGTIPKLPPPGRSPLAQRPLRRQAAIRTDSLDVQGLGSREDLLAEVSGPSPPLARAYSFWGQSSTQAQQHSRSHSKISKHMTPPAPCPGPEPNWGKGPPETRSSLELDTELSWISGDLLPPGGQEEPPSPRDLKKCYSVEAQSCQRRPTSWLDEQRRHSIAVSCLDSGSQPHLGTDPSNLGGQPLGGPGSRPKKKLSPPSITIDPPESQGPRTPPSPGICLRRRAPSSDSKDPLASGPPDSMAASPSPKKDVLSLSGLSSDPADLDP
Method: Transfection. HEK-293 cells stably transfected with the Cav3.1 α1 subunit were transiently transfected with vectors containing GFP and γ subunits cDNA when the cultures reached 50% confluency. Lipofectamine 2000 reagent (Invitrogen) was used following manufacturer's protocol.
Electrophysiology. Whole cell Ca2+ currents were recorded at room temperature using an Axon Instruments Axopatch-1D amplifier, a Digidata 1200 interface and pClamp8.0 software about 48 hours after transfection. Cell capacitance was typically around 10 pF, but ranged from 5-40 pF. Recording micropipettes were made from borosilicate glass (2-3 Mohms tip resistance), and filled with solution contained (in mM) 130 NaCl, 10 EGTA, 2 MgCl2, 1 CaCl2, 10 HEPES, 3 Tris-ATP, and 0.3 Li2GTP or 0.3 Tris-GTP. Tyrode's solution was used as the bath solution. It contained (in mM) 137 NaCl, 1 KCl, 1 MgCl2, 0.33 NaH2PO4, 2 CaCl2, 10 HEPES. Both solutions were adjusted to pH 7.4 with NaOH and 280 mOsm with sucrose.
We determined the biophysical characteristics of Cav3.1 currents in transfected HEK-293 cells and effects of the first transmembrane domain of γ4 and γ6 on these properties. Test parameters were optimized for studying Cav3.1 current. The time constant (τ) of deactivation (τdeac) was obtained by single exponential fitting of tail currents. For Cav3.1 currents, the cells were clamped at a holding potential of −100 mV, then depolarized to −20 mV for 4 msec, and repolarized to various voltages from −120 mV to −60 mV at 10 mV interval for 150 msec to elicit tail currents.
The voltage dependence of activation was measured using tail currents. For Cav3.1 currents, the cells were clamped at a holding potential equal to −100 mV, and then depolarized briefly to a conditioning potential, varying from −90 mV to +60 mV, and finally clamped at −60 mV before inactivation. Using this protocol, all tail currents are elicited at the same driving force (at −60 mV), so the current amplitude accurately reflects the number of channels opened during the different conditioning potentials.
A series of conditioning prepulses of 500 msec were used to measure voltage dependence of inactivation in our experiments. Channels initially open and then reach steady-state inactivation during the 500 msec long prepulses. The membrane potential is stepped to a fixed test potential of −20 mV, where maximal peak current is elicited. Currents elicited at each test potential reflect how many channels are not in the inactivated state after a steady-state inactivation; that is, how many channels are available to open. The conditioning prepulse potentials were changed from −120 mV to 50 mV, and the test potential is fixed at −20 mV.
Data collection and analysis. To probe the structural features necessary for the function of γ subunits, we are using HEK-293 cell line stably transfected with Cav3.1 α1 subunit. These cells are then transiently transfected with vectors containing various chimeric, truncated or mutant gamma subunits. […] There is inherent variation in calcium current density in the HEK-Cav3.1 stable cell line likely due to differences in the batch used, passenger number, extent of cellular confluence, or for other unknown reasons. The averaged current density of each test group of cells was normalized to the mean current density of a parallel control group of cells plated from the same batch of cells and analyzed on the same day. A minimum of 5 cells (typically 7 to 10) from each group was used to calculate the mean behavior of test and control cells from each days recording. At least two independent transfections were performed for each test condition. Overall, averages were obtained from 21 control groups of cells that had been transfected with empty vector over several months. The data are pooled together to reduce the variance. […] The current density of the control cells over many months justified the pooling of data recorded from different batches of cells transfected with mutated γ subunits. […]

Cav3.1 [2] = target: T1, Cav3.1; assay: Whole-cell patch clamp of Cav3.1 current in Cav3.1/HEK cells transfected with chimeras, truncations and point mutants (Example 6); type: cell-based; conditions: FIG. 38, FIG. 41
Method: Transfection. HEK-293 cells stably transfected with either Cav3.1 or Cav3.2 were transiently transfected, at 50% confluency, with a bicistronic vector encoding both GFP and γ subunit cDNA's using Lipofectamine 2000 reagent (Invitrogen, Carlsbad, Calif.) as per the manufacturer's recommendations. Cells were visualized using an Nikon inverted microscope with an FITC filter.
Electrophysiology. Whole cell Ca^2+ currents were recorded using an Axon Instruments Axopatch-1D amplifier and Clampex 8.0 software. Pipettes were made from boroscillicate glass and had typical resistances of 2-4 Mohms. The pipette solution contained (in mM) 130 NaCl, 10 EGTA, 2 or 5 MgCl2, 1 CaCl2, 10 HEPES, 3 Tris-ATP, and 0.3 Li2GTP. Two different bath solutions were used. The first, used for experiments with γ subunit chimeras, contained (in mM) 130 NaCl, 1 MgCl2, 2 CaCl2, 10 glucose, 10 HEPES, and 0.03 TTX. The second, used for experiments with γ subunit containg point mutations, contained (in mM) 137 NaCl, 1 KCl, 1 MgCl2, 0.33 NaH2PO4, 2 CaCl2, 10 HEPES. All solutions were adjusted to pH 7.4 with NaOH and 280 mOsm with sucrose. No Cl^− currents were evident in any HEK-293 cells line, stably transfected or not, and no attempt was made to eliminate Cl^− currents from data records.
All electrophysiological data are from current records in which voltage offset was adjusted, pipette capacitance and whole cell capacitance were compensated and series resistance was compensated to >80%. Currents were filtered at 10 kHz and recorded at 40 kHz. In some cases, current records were off-line filtered at 1K. Current voltage relationships were recorded using an on-line P/−4 subtraction procedure to eliminate linear capacitative and leakage currents. Only recordings with less than 50 pA leakage current were used.
Several different protocols were used to determine the biophysical characteristics of currents in HEK-293 cells. The voltage dependence of activation was determined using “tail” currents. Cells were depolarized from a holding potential of −100 mV to test potentials ranging from −90 mV to +60 mV. Pulse durations varied and corresponded to the time to peak current measured at the corresponding test potentials. Following the conditioning pulse cells were re-polarized to −60 mV and the amplitude of the resulting “tail” current measured. The voltage dependence of inactivation was measured by depolarizing the cells to voltages ranging from −120 mV to 50 mV for 500 ms to inactivate the Ca^2+ channels. After this conditioning step the membrane was returned to the holding potential (−100 mV) for 3 ms and then depolarized a second time to +20 mV for 150 ms during which time the peak current was measured. Time constants for inactivation were measured by fitting a single exponential equation to the decay phase of currents elicited by voltage steps from −50 to +30 mV from a holding potential of −100 mV. Time constants for deactivation were measured by fitting either a single or a double exponential to the decay phase of tail currents.
To account for the inherent variation in calcium current density in the HEK-Cav3.1 stable cell line the averaged current density of each test group of cells was normalized to the mean current density of a control group of cells. A minimum of 5 cells (typically 7 to 10) from each group was used to calculate the mean current densities of test and control cells. At least two independent transfections were performed for each test condition. […]

Molecule | Inhibitory function on Cav3.1 calcium current (Cav3.1 [1]) | Inhibitory function on Cav3.1 calcium current (Cav3.1 [1]; listed as A461) | Effect on Cav3.1 calcium current density (Cav3.1 [2]) | Normalized Current Density (Cav3.1 [1]) | Normalized Current Density (Cav3.1 [1]; listed as G49A) | Normalized current density, % of control (Cav3.1 [2]; Cav3.1/HEK cells)
B1 | did not inhibit calcium current | no longer inhibitory | also altered Cav3.1 current density | – | – | –
B2 | – | – | – | 67.6% | 67.6%±5.9% | 67.6%±5.9%
B3 | no effect on Cav3.1 calcium current | – | does not alter calcium current density | – | – | –
